Assay results reported in paper PMC5121632.
Values joined by “and” are separate entries in the source; they are usually repeats but may differ in a detail not shown here. Equal values may be shown once.

Legend:
[1] = test system: CT-TALE (dAvrBs3 TALE without periodic non-RVD mutations at repeat positions 4 and 32); test: ITC; conditions: ITC: 50 mM Tris-HCl pH 8.0, 200 mM NaCl, 1 mM DTT, 5% glycerol; 15 and 25 °C; 96 μM DNA injected into TALE; single-site model
[2] = test system: VT-TALE (dAvrBs3 TALE with periodic non-RVD mutations at repeat positions 4 and 32); test: ITC; conditions: ITC: 50 mM Tris-HCl pH 8.0, 200 mM NaCl, 1 mM DTT, 5% glycerol; 15 and 25 °C; 96 μM DNA injected into TALE; single-site model

Row | Sequence | Kd [1] | Kd [2]
1 | GGGTATACTCACTGGGTGTGGGGG (double strand) [EBEn] | 109 nM and 305 nM | 117 nM and 262 nM
2 | GGGTATACTCACACAATAGCTGGG (double strand) [EBEf] | 139 nM and 346 nM | 131 nM and 326 nM
